In patent US7172865B2, “Rapid and sensitive assay for the detection and quantification of coregulators of nucleic acid binding factors” (Saint Louis University, priority 2001, dated 2007):

Experiments:
[1] = tested on: CAP5/CAP3 and CAP4/CAP1 nucleic acid duplexes; experiment: CAP assay with 7-diethylaminocoumarin-3-carboxylic acid donor and dabcyl acceptor; format: binding, E. coli; settings: 100 nM CAP, 50 nM duplexes, 200 μM cAMP
Description: Amino-Modifier C2 dT (Glen Research, Sterling, Va.) was incorporated into positions that are equivalent to the positions at which fluorescein-dT and dabcyl-dT has been used previously in CAP2 and CAP4 oligonucleotides, respectively. Amino-Modifier C2 dT contains a reactive aliphatic amino group that can be used to covalently attach any amino-reactive fluorescence probe. CAP5 (SEQ ID NO:7) and CAP6 (SEQ ID NO:8) oligonucleotides were modified with 7-diethylaminocoumarin-3-carboxylic acid, succinimidyl ester. This fluorochrome is excited at 433 nm and the maximum emission occurs at 475 nm providing the possibility of testing the assay with different emission colors. To modify the […], ˜20 nmoles of the oligonucleotides were dissolved in 50 μl of 50 mM NaHCO3 (pH 8.3) and 50 nmoles of dry 7-diethylaminocoumarin-3-carboxylic acid, succinimidyl ester (Molecular Probes, Eugene, Oreg.) were added. The reaction mixture was incubated overnight at room temperature. […]
In the first experiment (FIG. 8), the pair of CAP5/CAP3 and CAP4/CAP1 nucleic acid duplexes were tested in the CAP assay. In this format, the 7-diethylaminocoumarin-3-carboxylic acid label present in the CAP5/CAP3 duplex functions as the fluorescence donor and the dabcyl label present in the CAP4/CAP1 duplex functions as a fluorescence acceptor.

[2] = tested on: CAP5/CAP3 and CAP1/CAP4 duplexes; experiment: two-color simultaneous detection, coumarin-labeled CAP constructs; format: binding; settings: excitation 433 nm, one protein only
Description: (§1) The compatibility of the assays described in the instant invention with a variety of fluorescence probes emitting at different wavelengths allows for the designing of variations in which two or more proteins may be detected simultaneously. Nucleic acid constructs specific for each of the proteins to be detected may be labeled with probes that emit light at different wavelengths. In this example, the reaction mixture contained nucleic acid constructs labeled with 7-diethylaminocoumarin-3-carboxylic acid for detecting CAP protein (described in EXAMPLE 2) and nucleic acid constructs labeled with fluorescein for detecting TrpR protein (described in EXAMPLE 6). Specifically, 100 nM CAP5/CAP3, 120 nM CAP1/CAP4, 100 nM TRP2/TRP3, and 120 nM TRP1/TRP4 duplexes were present in the reaction mixture.
(§2) The fluorescence spectra with the excitation at 433 nm (excitation of 7-diethylaminocoumarin-3-carbo acid, FIG. 17A) and with the excitation at 490 nm (excitation of fluorescein, FIG. 17B) were recorded in the absence of the proteins (curves 1), in the presence of CAP only (curves 2), in the presence of TrpR only (curves 3), and in the presence of both CAP and TrpR (curves 4). In the presence of only CAP there was no change in the fluorescein signal (FIG. 17B, curve 2) whereas about 60% quenching of the 7-diethylaminocoumarin-3-carbox acid signal was observed (FIG. 17A, curve 2). […]

[3] = tested on: TRP2/TRP3 and TRP1/TRP4 duplexes; experiment: two-color simultaneous detection, fluorescein-labeled TrpR constructs; format: binding; settings: excitation 490 nm, one protein only
Description: as §1, §2

DNA = settings: sequence specific binding; cited from earlier work
[4] = tested on: CAP nucleic acid binding element (CAP10/CAP11 and CAP12/CAP13); experiment: multiwell plate assay, immobilized CAP10/CAP11 and biotin-labeled CAP12/CAP13, streptavidin-peroxidase detection; settings: for Absorbance (450 nm), + CAP: 200 μM cAMP
Experimental: To illustrate the extensive flexibility of the invention in terms of detection mode, an experiment following the general design depicted in FIG. 1E was performed. The following oligonucleotides, which when fully assembled contain a complete CAP nucleic acid binding element, were synthesized (X=amino-dT; B=biotin):
The CAP10 oligonucleotide was hybridized with the CAP11 oligonucleotide to generate the first nucleic acid component. The CAP 12 oligonucleotide was hybridized with the CAP13 oligonucleotide to generate the second nucleic acid component. For hybridization, appropriate oligonucleotides were (1) mixed at 10 μM concentration in 100 μl of buffer (500 mM Na2HPO4, pH 8.6, 1 mM EDTA, in the case of CAP10/CAP11 oligonucleotides; and 20 mM Tris, pH 8.0, 100 mM NaCl, 10 μM EDTA, in the case of CAP12/CAP13 oligonucleotides), (2) heated for 1 min at 95° C., and then (3) cooled to 25° C for 1 hr. The first nucleic acid component (CAP10/CAP11 half-site duplex) was covalently attached to the wells of a N-oxysuccinimide-activated 96 well plate (DNA-BIND, Corning, Acton, Mass.) by incubating 200 μl of first nucleic acid component (at 100 nM) per well in 500 mM Na2HPO4 (pH 8.6), 1 mM EDTA buffer for 1 hr followed by washing with 50 mM Tris (pH 8.0), 100 mM NaCl, 1 mM EDTA containing 0.1 mg/ml BSA. […] After incubation for 1 hr at room temperature, the wells were washed twice with the buffer followed with the addition of streptavidin-linked horseradish peroxidase (Pierce, Rockford, Ill.) at the dilution recommended by the manufacturer. After 30 min of incubation, the wells were washed twice with buffer followed with the addition of 100 μl of Turbo-TMB™ peroxidase substrate solution (Pierce, Rockford, Ill.). […] The absorbance at 450 nm of the sample and control wells were read using a standard microplate reader.

B1: CAP: bacterial transcription activator from E. coli which binds DNA in a sequence specific, cAMP-dependent manner (protein, UniProt P0ACJ8 2-210, looked up)
DNA-binding transcriptional …: VLGKPQTDPTLEWFLSHCHIHKYPSKSTLIHQGEKAETLYYIVKGSVAVLIKDEEGKEMILSYLNQGDFIGELGLFEEGQERSAWVRAKTACEVAEISYKKFRQLIQVNPDILMRLSAQMARRLQVTSEKVGNLAFLDVTGRIAQTLLNLAKQPDAMTHPDGMQIKITRQEIGQIVGCSRETVGRILKMLEDQNLISAHGKTIVVYGTR
quenching of the fluorescence signal [1]: ~70% | quenching of the 7-diethylaminocoumarin-3-carboxylic acid signal [2]: about 60% | quenching of the fluorescein signal [3]: no change | Kd (DNA): ~0.1 nM | increase in absorbance signal compared to controls without CAP or cAMP ([4]; 10 nM CAP12/CAP13): approximately 3 fold | Absorbance (450 nm), + CAP ([4]; 10 nM CAP12/CAP13, 250 nM CAP): 0.7308 | Absorbance (450 nm), + CAP ([4]; 20 nM CAP12/CAP13, 250 nM CAP): 0.8584
